Patent US9533055 (ARMAGEN TECHNOLOGIES, dated 2017)

Biological target: T1, HIR extracellular domain (ECD) (human, UniProt P06213 28-956, limits assumed)
T1 construct: extracellular domain; also called HIR ECD; human insulin receptor ECD
Test: ELISA, plated HIR ECD, biotinylated goat anti-human IgG detection
Protocol: The affinity of the fusion protein for the HIR extracellular domain (ECD) was determined with an ELISA using the lectin affinity purified HIR ECD. CHO cells permanently transfected with the HIR ECD were grown in serum free media (SFM), and the HIR ECD was purified with a wheat germ agglutinin affinity column. The HIR ECD (0.2 μg/well) was plated on Immulon 2 high binding 96-well plates, and the binding of the chimeric HIRMAb, the HIRMAb-TNFR fusion protein, or human IgG1 to the HIR ECD was detected with a biotinylated goat anti-human IgG (H+L) antibody (0.3 μg/well), and the avidin biotinylated peroxidase detection system.

B1: chimeric HIRMAb (antibody, V domains shown)
VH: QVQLQQSGPELVKPGALVKISCKASGYTFTNYDIHWVKQRPGQGLEWIGWIYPGDGSTKYNEKFKGKATLTADKSSSTAYMHLSSLTSEKSAVYFCAREWAYWGQGTLVTVSA
VL: DIQMTQSPSSLSASLGERVSLTCRASQDIGGNLYWLQQGPDGTIKRLIYATSSLDSGVPKRFSGSRSGSDYSLTISSLESEDFVDYYCLQYSSSPWTFGGGTKMEIKR
notes: Human IgG1/kappa constant regions; also called MAb to HIR
B1 was tested, and the EC50 was 0.44 nM.
